This note sets out measurements from patent publication US20230416410A1.

First the molecules themselves.
B1: bIgG2a_L432A_N434A mAb (antibody, part only; not given: variable domains, not shown: another chain or arm of the molecule)
constant: ASTTAPKVYPLTSCCGDKSSSRVTLGCLVSSYMPEPVTVTWNSGALKSGVHTFPAVLQSSGLYSLSSMVTVPGSSSGQTFTCNVAHPASSTKVDKAVGVSSDCSKPNNQHCVREPSVFIFPPKPKDTLMITGTPEVTCVVVNVGHDNPEVQFSWFVDDVEVHTARTKPREEQFNSTYRVVSALPIQHQDWTGGKEFKCKVNIKGLSASIVRIISRSKGPAREPQVYVLDPPKEELSKSTVSVTCMVIGFYPEDVDVEWQRDRQTESEDKYRTTPPQLDADRSYFLYSKLRVDRNSWQRGDTYTCVVMHEAAHAHYMQKSTSKSAGK
B2: bIgG3a wildtype mAb (antibody, part only; not given: variable domains, not shown: another chain or arm of the molecule)
constant: ASTTAPKVYPLASSCGDTSSSTVTLGCLVSSYMPEPVTVTWNSGALKSGVHTFPAVRQSSGLYSLSSMVTVPASSSETQTFTCNVAHPASSTKVDKAVTARRPVPTTPKTTIPPGKPTTPKSEVEKTPCQCSKCPEPLGGLSVFIFPPKPKDTLTISGTPEVTCVVVDVGQDDPEVQFSWFVDDVEVHTARTKPREEQFNSTYRVVSALRIQHQDWLQGKEFKCKVNNKGLPAPIVRTISRTKGQAREPQVYVLAPPREELSKSTLSLTCLITGFYPEEIDVEWQRNGQPESEDKYHTTAPQLDADGSYFLYSKLRVNKSSWQEGDHYTCAVMHEALRNHYKEKSISRSPGK
B3: bIgG3a_R433H mutant mAb (antibody, part only; not given: variable domains, not shown: another chain or arm of the molecule)
constant: B2 constant with R338H
B4: bIgG2a_L432A mAb (antibody, part only; not given: variable domains, not shown: another chain or arm of the molecule)
constant: B1 constant with A313N
B5: bIgG2a_L432A_N434A_M437A mAb (antibody, part only; not given: variable domains, not shown: another chain or arm of the molecule)
constant: B1 constant with M316A
B6: bIgG2a_L432A_M437A mAb (antibody, part only; not given: variable domains, not shown: another chain or arm of the molecule)
constant: B1 constant with A313N, M316A
B7: bIgG2a_N434A mAb (antibody, part only; not given: variable domains, not shown: another chain or arm of the molecule)
constant: B1 constant with A311L
B8: bIgG2a_N434A_M437A mAb (antibody, part only; not given: variable domains, not shown: another chain or arm of the molecule)
constant: B1 constant with A311L, M316A
B9: bIgG2a_M437A mAb (antibody, part only; not given: variable domains, not shown: another chain or arm of the molecule)
constant: B1 constant with A311L, A313N, M316A
B10: bIgG1a mAb (antibody, part only; not given: variable domains, not shown: another chain or arm of the molecule)
constant: ASTTAPKVYPLSSCCGDKSSSTVTLGCLVSSYMPEPVTVTWNSGALKSGVHTFPAVLQSSGLYSLSSMVTVPGSTSGTQTFTCNVAHPASSTKVDKAVDPRCKTTCDCCPPPELPGGPSVFIFPPKPKDTLTISGTPEVTCVVVDVGHDDPEVKFSWFVDDVEVNTATTKPREEQFNSTYRVVSALRIQHQDWTGGKEFKCKVHNEGLPAPIVRTISRTKGPAREPQVYVLAPPQEELSKSTVSLTCMVTSFYPDYIAVEWQRNGQPESEDKYGTTPPQLDADGSYFLYSRLRVDRNSWQEGDTYTCVVMHEALHNHYTQKSTSKSAGK

Changes are numbered by the printed parent chain.

One test addresses recombinant bovine Fcg2R (bovine). The test is described as follows: SPR Biacore, bFcg2R amine-coupled on CM5; against bIgG2a wildtype mAb.
Regarding B1, the Fcg2R KD reduction from WT was determined as 4 fold.

The next test deals with recombinant bovine FcRn (bovine) (UniProt F6R592). Kind of test: SPR Biacore, bFcRn on SA sensor, pH 6, 25 C.
Sequence of recombinant bovine FcRn (bovine) (chain, as listed by the source, chain 1 of 2): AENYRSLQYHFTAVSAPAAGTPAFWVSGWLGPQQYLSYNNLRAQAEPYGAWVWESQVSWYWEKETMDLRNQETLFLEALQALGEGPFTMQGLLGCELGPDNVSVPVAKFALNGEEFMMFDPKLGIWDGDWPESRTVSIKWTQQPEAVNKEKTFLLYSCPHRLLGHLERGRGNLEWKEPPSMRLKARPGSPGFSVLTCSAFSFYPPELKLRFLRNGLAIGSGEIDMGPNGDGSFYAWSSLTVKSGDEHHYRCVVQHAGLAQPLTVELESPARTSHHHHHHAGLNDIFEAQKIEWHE
Sequence of recombinant bovine FcRn (bovine) (P01888 21-118, chain 2 of 2): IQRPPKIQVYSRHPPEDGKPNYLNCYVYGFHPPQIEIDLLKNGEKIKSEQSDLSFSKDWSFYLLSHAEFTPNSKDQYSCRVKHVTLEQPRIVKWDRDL
On to B2, for which the Kd stood at 30.2 nM.
Turning to B3, the Kd was determined as 9.14 nM.
On the same count and under the same terms, under B4 stands 0.579 nM; under B5, 6.96 nM; under B6, 3.03 nM.
Consider B7, for which the Kd was 1.04 nM.
On the same count and under the same terms, then B8, with 2.31 nM; and B1, with 1.7 nM.
With B9, the equilibrium dissociation constant (Kd) was found to be 0.59 nM.
On the same count and under the same terms, then B10, with 31.4 nM.

The target is the same in a further test. Kind of test: SPR Biacore, bFcRn, pH 6; against bIgG3a wildtype mAb.
Take B3: the fold higher affinity than bIgG3a wildtype was found to be 5 fold.

In another test the target is recombinant bovine Fcg2R (bovine). Kind of test: SPR Biacore, bFcg2R amine-coupled on CM5, pH 7.4, 15 C.
Sequence of recombinant bovine Fcg2R (bovine) (main, as listed by the source): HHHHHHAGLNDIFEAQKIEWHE
Regarding B1, the Kd was determined as 59.3 nM.
